Results: patent US20120135461A1, “PRODUCTION OF GLYCOPROTEINS WITH REDUCED O-GLYCOSYLATION COMPRISING THE USE OF AN ALPHA-1,2-MANNOSIDASE” (priority 2010, published 2012)
“Also recorded” adds a separate entry of the source.

B1: Aspergillus oryzae: A. oryzae α-1,2-mannosidase, GenBank BAE57653, SEQ ID NO: 14 (protein, listed as Aspergillus oryzae)
chain: YPQFKFEQRVARSNSSESRANAVKEAFVHAWDGYMQYAYPHDELHPISNGVGDSRNGWGASAVDALSTAVIMGNETIVNQILDHIATIDYSKTDDQVSLFETTIRYLGGMLSGYDLLKGPASNLVKDQAKVKTLLDQSQNLADVLKFAFDTPSGIPYNNINITSHGNDGATTNGLAVTGTLVLEWTRLSDLTGDTEYAQLSQKAEDYLLNPSPKSAEPFEGLVGSHINISNGAFADGQVSWNGGDDSFYEYLIKMYVYDPKRFSTYGDRWVKAAESSIKHLASHPEKRPDLTFLASYNDGQYGLSSQHLTCFDGGSFLLGGTVLDRDDFIQFGLDLVKGCHETYNQTLTGIGPESFGWDPKNVPSDQKELYERAGFYISSGAYILRPEVIESFYYAWRITGQEIYREWVWNAFVNINKYCRTDSGFAGLTNVNAANGGGRYDNQESFLFAEVLKYVYLTFAPDNEWQVQRGKGNKFVYNTEAHPVRVAA
B2: Aspergillus saitoi: A. saitoi α-1,2-mannosidase, GenBank BAA08634, SEQ ID NO: 12 (protein, listed as Aspergillus saitoi)
chain: YPHFGSSQPVLHSSSDTTQSRADAIKAAFSHAWDGYLQYAFPHDELHPVSNGYGDSRNGWGASAVDALSTAVIMRNATIVNQILDHVGKIDYSKTNTTVSLFETTIRYLGGMLSGYDLLKGPVSDLVQNSSKIDVLLTQSKNLADVLKFAFDTPSGVPYNNLNITSGGNDGAKTNGLAVTGTLALEWTRLSDLTGDTTYADLSQKAESYLLNPQPKSAEPFPGLVGSNINISNGQFTDAQVSWNGGDDSYYEYLIKMYVYDPKRFGLYKDRWVAAAQSTMQHLASHPSSRPDLTFLASYNNGTLGLSSQHLTCFDGGSFLLGGTVLNRTDFINFGLDLVSGCHDTYNSTLTGIGPESFSWDTSDIPSSQQSLYEKAGFYITSGAYILRPEVIESFYYAWRVTGQETYRDWIWSAFSAVNDYCRTSSGFSGLTDVNAANGGSRYDNQESFLFAEVMKYSYMAFAEDAAWQVQPGSGNQFVFNTEAHPVRVSST
B3: Chaetomiun globosum: C. globosum α-1,2-mannosidase, GenBank XP_001227052, SEQ ID NO: 16 (protein, listed as Chaetomium globosum)
chain: LPRLEDGGRPGAGREDSFWSKVPLHYPPDSIRPLPTGLPVQYPPIQTTTFPAEEDQAARGRRVQRQKAVRDVFAKCWASYRKLAWGADELTPVSGGRKDPFGGWSATLVDSLDTLWIMDMKTEFDEAVAAADGINFTHTAVDRVNVFETNIRYLGGFLAAFDLSGDKRLLGKATEVGDMLYKAFDTPSHMPITRWDMRAAIKGAKQVASEGLIAEVGTLSMEFTRLSMLTGDPKWFDLAQRITDDMAAQQDSTAVPGLWPLKVNGQKRIFNSGPDFTLGAMADSAYEYLPKMSAMMGGQLPMYQTMYEKAMDAATKHNLFRPMTPTNEDILIAGDVHARENGMEFEARGQHLTCFLGGLMALGGRLYGREKDVIAGRKLTDGCVWTYKAFPQGIMPESFVTVSCPAGDACEWDEGVWKKEVLRKANKDTDGPESNAEAEVIIKKQRLPQGFTAVFDRAYLLRPEAIESVFVLYRVTGKVELLEAAWDMFTAIDKATSTDLANSAIRDVTSTDKPEAKDSMESFWMAETLKYFYLIFSDPELINLNEYVLNTEAHPFRRLLPSP
B4: Penicillium citrinum: Penicillium citrinum α-1,2-mannosidase, GenBank BAA08275, SEQ ID NO: 8 (protein, listed as Penicillium citrinum)
chain: HPYGETEAVLRSEPKSNQAKADAVKEAFQHAWNGYMKYAFPHDELTPVSNGHADSRNGWGASAVDALSTAVIMGKADVVNAILEHVADIDFSKTSDTVSLFETTIRYLAGMLSGYDLLQGPAKNLVDNQDLIDGLLDQSRNLADVLKFAFDTPSGVPYNNINITSHGNDGATTNGLAVTGTLVLEWTRLSDLTGDEEYAKLSQKAESYLLKPQPSSSEPFPGLVGSSININDGQFADSRVSWNGGDDSFYEYLIKMYVYDPKRFETYKDRWVLAAESTIKHLKSHPKSRPDLTFLSSYSNRNYDLSSQHLTCFDGGSFLLGGTVLDRQDFIDFGLELVDGCEATYNSTLTKIGPDSWGWDPKKVPSDQKEFYEKAGFYISSGSYVLRPEVIESFYYAHRVTGKEIYRDWVWNAFVAINSTCRTDSGFAAVSDVNKANGGSKYDNQESFLFAEVMKYSYLAHSEDAAWQVQKGGKNTFVYNTEAHPISVARN

test system: O-glycosylated α-Her2 heavy chain (Hc); experiment: not given; type: cell-based, Pichia pastoris

| Molecule | α-Her2 Hc migration on Western blot relative to non-transformed control |
| --- | --- |
| B1 | migration is increased; also recorded: faster relative to the non-transformed control but not as fast |
| B2 | faster relative to the non-transformed control but not as fast |
| B3 | faster relative to the non-transformed control but not as fast |

test system: O-glycans of α-Her2; experiment: O-mannose chain length analysis by HPAEC-PAD of O-glycans released from α-Her2 from fermented MNS1 strains; type: cell-based, Pichia pastoris

| Molecule | O-Man1 (%) | effect on percentage of O-Man1 / O-mannose chain length relative to no MNS1 control |
| --- | --- | --- |
| B1 | 89% | reduced O-mannose chain length, but to a lesser extent |
| B2 | 86% | reduced O-mannose chain length, but to a lesser extent |
| B3 | 89% | reduced O-mannose chain length, but to a lesser extent |
| B4 | 83% | reduced O-mannose chain length, but to a lesser extent |
